{"source": "patent US20080227698A1", "about": "“OLIGOPEPTIDES FOR TREATMENT OF OSTEOPOROSIS AND OTHER BONE DISEASES AND METHODS THEREOF” (Washington University, priority 2005, published 2008)", "molecules": {"B1": {"name": "Mesd: recombinant wild-type mouse Mesd, polyhistidine tail at the N-terminus, lacks the signal peptide, expressed in E. coli (protein)", "chain": "ADTPGEATPPPRKKKDIRDYNDADMARLLEQWEKDDDIEEGDLPEHKRPSAPIDFSKLDPGKPESILKMTKKGKTLMMFVTVSGNPTEKETEEITSLWQGSLFNANYDVQRFIVGSDRAIFMLRDGSYAWEIKDFLVSQDRCAEVTLEGQMYPGKGGGSKEKNKTKPEKAKKKEGDRKPRASKEDNRAGSRREDL", "modifications": "left off: small tags and cut ends", "notes": "recombinant wild-type mouse Mesd, polyhistidine tail at the N-terminus, lacks the signal peptide, expressed in E. coli"}}, "key": {"LRP5": {"target": "LRP5 (Homo sapiens, UniProt O75197)", "sequence (O75197 32-1615)": "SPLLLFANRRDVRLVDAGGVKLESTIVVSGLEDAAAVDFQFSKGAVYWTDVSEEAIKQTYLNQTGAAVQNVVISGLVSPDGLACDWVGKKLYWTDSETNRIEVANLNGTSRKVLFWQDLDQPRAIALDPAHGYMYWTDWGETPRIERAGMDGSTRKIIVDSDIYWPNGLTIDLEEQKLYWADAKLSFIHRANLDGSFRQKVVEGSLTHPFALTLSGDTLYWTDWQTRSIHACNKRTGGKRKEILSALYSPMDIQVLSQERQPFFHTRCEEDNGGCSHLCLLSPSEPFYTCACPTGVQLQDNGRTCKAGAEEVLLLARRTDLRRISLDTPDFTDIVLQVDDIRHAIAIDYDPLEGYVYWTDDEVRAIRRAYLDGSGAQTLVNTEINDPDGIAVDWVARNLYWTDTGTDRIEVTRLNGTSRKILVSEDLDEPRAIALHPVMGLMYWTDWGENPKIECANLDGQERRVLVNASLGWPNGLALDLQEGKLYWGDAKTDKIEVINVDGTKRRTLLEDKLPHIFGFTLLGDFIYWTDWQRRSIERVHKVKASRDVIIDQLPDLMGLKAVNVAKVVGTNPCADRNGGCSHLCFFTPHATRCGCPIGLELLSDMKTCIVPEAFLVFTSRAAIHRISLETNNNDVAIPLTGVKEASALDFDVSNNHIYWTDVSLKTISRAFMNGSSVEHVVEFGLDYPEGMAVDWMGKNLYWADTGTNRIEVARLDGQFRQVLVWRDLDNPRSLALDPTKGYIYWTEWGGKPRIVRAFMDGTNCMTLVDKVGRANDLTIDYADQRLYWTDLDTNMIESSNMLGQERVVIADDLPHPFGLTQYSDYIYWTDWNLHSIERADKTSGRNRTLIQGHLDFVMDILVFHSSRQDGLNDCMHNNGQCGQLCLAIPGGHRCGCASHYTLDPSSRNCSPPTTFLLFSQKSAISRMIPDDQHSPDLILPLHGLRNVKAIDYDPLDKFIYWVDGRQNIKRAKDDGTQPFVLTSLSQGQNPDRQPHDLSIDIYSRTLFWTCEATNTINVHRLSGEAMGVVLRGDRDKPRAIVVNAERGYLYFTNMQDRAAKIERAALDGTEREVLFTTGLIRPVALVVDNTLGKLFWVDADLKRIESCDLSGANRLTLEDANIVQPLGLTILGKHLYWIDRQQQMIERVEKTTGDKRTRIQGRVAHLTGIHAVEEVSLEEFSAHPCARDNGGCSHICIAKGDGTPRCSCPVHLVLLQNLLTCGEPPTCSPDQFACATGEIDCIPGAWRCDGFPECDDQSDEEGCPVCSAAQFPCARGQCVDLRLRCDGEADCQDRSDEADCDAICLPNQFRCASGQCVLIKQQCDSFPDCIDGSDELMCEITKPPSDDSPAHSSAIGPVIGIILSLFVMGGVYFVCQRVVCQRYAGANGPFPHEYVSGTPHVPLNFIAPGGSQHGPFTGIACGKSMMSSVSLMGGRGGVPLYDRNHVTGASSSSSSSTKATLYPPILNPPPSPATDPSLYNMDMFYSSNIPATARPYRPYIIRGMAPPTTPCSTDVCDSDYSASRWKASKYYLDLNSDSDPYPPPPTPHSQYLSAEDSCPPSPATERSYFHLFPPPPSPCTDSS", "experiment": "^125I-Mesd binding to HEK293 cells transiently transfected with LRP5", "conditions": "^125I-Mesd 5 nM, 4 hours at 4° C., HEK293 cells transfected with Myc-tagged LRP5", "description": "Cells (2×10^5) were seeded into 12-well dishes 1 day prior to assay. Ligand-binding buffer (minimal Eagle's medium containing 0.6% BSA with a different concentration of radioligand, 0.6 ml/well) was added to cell monolayers, in the absence or the presence of 500 nM unlabeled RAP or 500 nM unlabeled Mesd, followed with incubation for 0-4 hours at 4° C. Thereafter, overlying buffer containing unbound ligand was removed, and cell monolayers were washed and lysed in low-SDS lysis buffer (62.5 mM Tris-HCl pH 6.8, 0.2% SDS, 10% v/glycerol) and counted.\nTo determine whether Mesd binds to other members of the LDLR family, ^125I-Mesd binding analysis was performed with four groups of cells expressing different members of the LDLR family (FIG. 2). In the first experiment, HEK293 cells were transiently transfected with cDNAs for the LDLR, LRP5, LRP6 or empty pcDNA3 vector. […]"}, "LRP6": {"target": "LRP6 (Homo sapiens, UniProt O75581)", "sequence (O75581 20-1613)": "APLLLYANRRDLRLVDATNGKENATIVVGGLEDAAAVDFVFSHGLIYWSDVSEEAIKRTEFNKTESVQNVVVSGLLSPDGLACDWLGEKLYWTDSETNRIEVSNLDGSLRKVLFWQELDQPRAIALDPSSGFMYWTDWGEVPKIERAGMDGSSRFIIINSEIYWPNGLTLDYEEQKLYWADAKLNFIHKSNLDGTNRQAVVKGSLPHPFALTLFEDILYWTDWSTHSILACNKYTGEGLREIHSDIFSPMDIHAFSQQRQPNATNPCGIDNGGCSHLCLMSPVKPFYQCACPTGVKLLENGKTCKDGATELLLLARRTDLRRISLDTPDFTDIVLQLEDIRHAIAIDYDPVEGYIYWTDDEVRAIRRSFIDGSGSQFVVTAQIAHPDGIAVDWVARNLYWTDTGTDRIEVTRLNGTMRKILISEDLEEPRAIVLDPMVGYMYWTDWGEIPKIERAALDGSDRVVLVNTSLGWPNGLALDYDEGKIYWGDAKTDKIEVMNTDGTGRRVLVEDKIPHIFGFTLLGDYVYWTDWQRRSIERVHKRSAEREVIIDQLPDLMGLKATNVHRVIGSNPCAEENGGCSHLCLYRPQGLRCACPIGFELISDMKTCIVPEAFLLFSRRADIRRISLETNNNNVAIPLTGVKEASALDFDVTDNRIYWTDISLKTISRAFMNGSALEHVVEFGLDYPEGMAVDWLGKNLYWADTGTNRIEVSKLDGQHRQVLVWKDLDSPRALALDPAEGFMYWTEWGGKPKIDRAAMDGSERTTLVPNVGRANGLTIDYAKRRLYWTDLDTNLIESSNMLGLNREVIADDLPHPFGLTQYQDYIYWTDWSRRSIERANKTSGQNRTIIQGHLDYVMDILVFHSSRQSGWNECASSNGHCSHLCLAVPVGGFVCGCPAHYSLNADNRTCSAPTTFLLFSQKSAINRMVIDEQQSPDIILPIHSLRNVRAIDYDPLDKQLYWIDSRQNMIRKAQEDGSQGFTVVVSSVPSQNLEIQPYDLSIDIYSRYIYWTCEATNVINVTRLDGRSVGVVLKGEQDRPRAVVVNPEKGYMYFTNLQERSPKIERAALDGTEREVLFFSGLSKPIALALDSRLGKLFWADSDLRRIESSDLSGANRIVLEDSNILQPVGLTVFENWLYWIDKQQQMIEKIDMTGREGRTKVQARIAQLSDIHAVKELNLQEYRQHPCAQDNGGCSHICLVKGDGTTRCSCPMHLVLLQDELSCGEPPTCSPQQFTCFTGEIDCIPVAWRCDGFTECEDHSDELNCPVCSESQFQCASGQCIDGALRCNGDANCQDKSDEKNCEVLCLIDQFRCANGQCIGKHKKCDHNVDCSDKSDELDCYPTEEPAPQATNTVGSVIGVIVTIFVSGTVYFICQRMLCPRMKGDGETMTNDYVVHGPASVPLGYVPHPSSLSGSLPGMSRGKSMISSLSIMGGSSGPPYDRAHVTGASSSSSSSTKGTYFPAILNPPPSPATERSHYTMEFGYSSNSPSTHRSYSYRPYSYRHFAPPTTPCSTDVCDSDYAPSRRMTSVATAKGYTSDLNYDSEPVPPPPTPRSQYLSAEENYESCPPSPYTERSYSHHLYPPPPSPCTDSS", "experiment": "LRP6 folding: western blot of ER and mature LRP6 forms in HEK293 cells with Mesd coexpression", "format": "cell-based", "parameters": "plasmid pCS-Myc-hLRP6 containing the full-length human LRP6 cDNA; HA; expressed in transfected cells", "conditions": "HEK293 cells transiently transfected with LRP6 cDNA and Mesd or MesdΔC cDNA", "description": "To examine the expression of the LDLR family members, cells cultured in six-well plates were lysed with 0.5 ml lysis buffer (phosphate-buffered saline containing 1% Triton X-100 and 1 mM PMSF) at 4° C. for 30 minutes. Equal quantities of protein were subjected to SDS-PAGE under non-reducing conditions. Following transfer to Immobilon-P membrane, successive incubations with primary antibody and horseradish peroxidase-conjugated secondary antibody were carried out for 60 minutes at room temperature. The immunoreactive proteins were then detected using the ECL system.\nTo examine the role of this C-terminal region of Mesd on receptor folding, a Mesd mutant (Mesd_C), which lacks the C-terminal region (amino acids 156-191) but retains the endoplasmic reticulum retention signal (REDL) was generated (FIG. 3A). Next, a potential role for MesdΔC on LRP6 folding was evaluated. HEK293 cells were transiently transfected with cDNA for the LRP6 with cotransfection of control vector, or cDNAs for Mesd or MesdΔC. The steady-state levels of LRP6 were analyzed by western blotting with the anti-MYC antibody (FIG. 5A). […] In FIG. 5A, HEK293 cells were transiently transfected with the indicated cDNAs. Cell lysates were analyzed by SDS-PAGE under reducing conditions and western blotted with anti-FLAG or anti-HA antibodies as indicated."}}, "data": [{"molecule": "B1", "values": [{"measurement": "Specific ^125I-Mesd binding to LRP5", "setting": "LRP5", "result": "specifically binds to Mesd, albeit at lower levels compared to LRP6"}, {"measurement": "Amount of the mature form of LRP6 on coexpression", "setting": "LRP6", "result": "significantly increased"}]}]}
